Data reported in the nanobody polyreactivity screen of Harvey et al. (2022).

Assay: yeast display, Sf9 membrane polyspecificity reagent, FACS + sequencing; frameworks hold sequencing errors
How it was run: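 A synthetic nanobody library was expressed on Saccharomyces cerevisiae BJ5465 by galactose induction for 36–48 hours. The library was stained for 1 hour at 4 °C with 10% biotinylated, detergent-solubilized Sf9 membrane reagent and enriched with streptavidin microbeads before FACS. Low and high (top ~1%) gates were set on anti-HA fluorescence for expression and streptavidin fluorescence for reagent binding, and each polyreactivity label reflects the gate of origin.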

QVQLVESGGGLVQAGGSLRLTCAASGSTFRGNTMGWSRQAPGKERELVAAISWDGGTTYYADSVKGRFTISRDNAKNTVYLQMNCLKPEDTAVYYCAADWTGQEYEYWGQGTQVTVSS
polyreactivity (PSR sort gate): low polyreactivity

QVQLVESGGGLVQAGGSLRLTCAASGSTFTAYAMGWYRQAPGKERELVADISDSGGSTYYADSVKGRFTISRDNAKNTVYLQMNSLIPEDTAVYYCAVDVRAYVVSKFDSWGQGTQVTVSS
polyreactivity (PSR sort gate): low polyreactivity

QVQLVESGGGLVQAGGSLRLTCAASGSTFWFYAMGWYRQAPGKERELVATITIGGRTYADSVKGRYTISRDNAKNTVYLQMNSLKPEDTAVYYCAARRVRLEYVYGRYDYWGQGTQVTVSS
polyreactivity (PSR sort gate): low polyreactivity

QVQLVESGGGLVQAGGSLRLTCAASGSTFWYYAMGWYRQAPGKERELVASITYSGGSTYYADSVKGRFTISRDNAKNTVYLQMNSLKPEDTAVYYCAKDGVSPSLRAYAAGYDYWGQGTQVTVSS
polyreactivity (PSR sort gate): low polyreactivity

QVQLVESGGGLVQAGGSLRLTCAASGSTFYSNAMGWYRQATGKERELVASIRFSGVITTYADSVKGRFTISRDNAKNTVYLQMNSLKPEDTAVYYCAAGYLSTTAYDYWGQGTQVTVSS
polyreactivity (PSR sort gate): low polyreactivity

QVQLVESGGGLVQAGGSLRLTCAASGTIFYYNAMRWYRQAPGKERELVAAISWSGSRTYYADSVKGRFTISRDNAKITVYLQMNSLKPEDTAVYYCAAVVRFPFTYDYWGQGTQVTVSS
polyreactivity (PSR sort gate): high polyreactivity

QVQLVESGGGLVQAGGSLRLTCAASGVTFRYYAMVWYRQAPGKERELVAAITGSGTRTYYADSVKGRFTISRDNAKNTLYLQMNSLKPEDTAVYYCNAPRQPRWFDYWGQGTQVTVSS
polyreactivity (PSR sort gate): high polyreactivity

QVQLVESGGGLVQAGGSLRLTCAASRLTFDDNAMGWYRQAPGKERELVAAISYNGGSTYYADSVKGRFTISRDNAKNTVYLQMNSLKPEDTAVYYCAADISVGRYGDMDYWGQGTQVTVSS
polyreactivity (PSR sort gate): low polyreactivity

QVQLVESGGGLVQAGGSLRLTCAASVSIFPHYTMGWYRPAPGKERELVDAISNYGSSTYYADSVKGRFTISRDNAKNTVYLQMNSLKPEDSEVYYCNADDYGYSPGVNYWGQGTQVTVSS
polyreactivity (PSR sort gate): low polyreactivity

QVQLVESGGGLVQAGGSLRLTCAAYGRIFRGYAMGWYRQAPGKERDLVAAISGSGGSTYNADSVKGRFTISRDNAKNTVYLQMNSLKPEDTAVYYCNAGWYFYGETTDDYWGQGTQVTVSS
polyreactivity (PSR sort gate): low polyreactivity

QVQLVESGGGLVQAGGSLRLTCAAYGRIYINTMGWYRQPPGKERELVAAITWSGGNTYYADSVKGRFTISRDNAKNTVYLQMNSLKPEDTAVYYWAVGGYLRSVSYIRLGNYYWGQGTQVTVSS
polyreactivity (PSR sort gate): high polyreactivity

QVQLVESGGGLVQAGGSLRLTFAASGINLYDNVMGWYRTAPGKERELVAAISSSGTTKYYADSVKGRFTISRDYAKNTFYLQMNSLNPEDTAVYYCAADGITWYAIAYYYWGQGTQVTVSS
polyreactivity (PSR sort gate): high polyreactivity

QVQLVESGGGLVQAGGSLRLTSAASGFTFPYTDMGWYRPAPGKERELVADISSGGSTYYADSVKGRFTISRDNAKINVYLQMISLKPEDTAVYYCAAREAYSIRIYQGFGYWGQGTQVTVSS
polyreactivity (PSR sort gate): low polyreactivity

QVQLVESGGGLVQAGGSLRLTSAASGITFYGYAMGWYRQAPGKETELVAAISRSGSSTYYADSVKGRFTISRYNAKNTVYLQMNSLKPEVTAVYYCAARAWAQWGDYWGQGTQLTVSS
polyreactivity (PSR sort gate): high polyreactivity

QVQLVESGGGLVQAGGSLRLTSAASGSIFPYNAMGWYRPAPGKDSELLARISWSGGSTYYADSVKGRFTISRDNAKNTVYLQMKSLKPEDTALYYGAATIIFDAQYRFYYWGQGTQVTVSS
polyreactivity (PSR sort gate): low polyreactivity

QVQLVESGGGLVQAGGSLRLTSAASGSIFQPYAMGWYRQAPVKERELVASIRGSAGSTHYADSVKGRFTISRDNAKNTVYLQMNSLKPEDTAVYYCAARAVASHFSPRLYGYWGQGTQVTVSS
polyreactivity (PSR sort gate): high polyreactivity

QVQLVESGGGLVQAGGSLRLTSAGSGGILPKNAMGWSRQAPGKERELVADISTRGTSTYYADSVKGRFTISRDIAKNTVYLQMNSVKPEVTAVYYCANCRDYIGYDYWGQGSQVTVSS
polyreactivity (PSR sort gate): low polyreactivity

QVQLVESGGGLVQAGGSLRVSCAASGFTFALYAMGWYRQAPGKERELVAAISWSGGTTYYADSVKGRFTISRDNEKNTVDLQMNSLNPEDTAVYYCNAYTRSRGYDYWGQGTQVTVSS
polyreactivity (PSR sort gate): high polyreactivity

QVQLVESGGGLVQAGGSLRVSCAASGFTFGSYAMGWYRQSPGKERELVAVITRSGRTNYADSVKGRFTISRDNAKNTVYLQMNSLKPEDTAVYYCNADDVDDEVSPDLTEMDYWGQGTQVTVSS
polyreactivity (PSR sort gate): low polyreactivity

QVQLVESGGGLVQAGGSLRVSCAASGGIFGWYAMGWSRQAPGKERELVATITWRGGRTYYADSVKGRCTISRDNAKNTVYLQLTSLKPESTAVYYCTAEWLWYDAGYRYTIRDSWGQGTQVTESS
polyreactivity (PSR sort gate): low polyreactivity

QVQLVESGGGLVQAGGSLRVSCAASGGIFWYYTMGWYRQAPGKERELVATISSGGRTYYADSVKGRFTISRDNAKNTVYLQMNSLKPEDTAVYYCAAVGWYHDYYWGQGTQVTVSS
polyreactivity (PSR sort gate): high polyreactivity

QVQLVESGGGLVQAGGSLRVSCAASGIFPAYDMGWYRQAPGKDRELVASISADSGSTHYADSVKGRFTISRDNAKNTVYFQMNSLKPEDTAVYYCAADLGYRTGDYYWGQGTQVTVSS
polyreactivity (PSR sort gate): low polyreactivity

QVQLVESGGGLVQAGGSLRVSCAASGIIFYGYAMGWYRQAPGKEMELVAVITSGGSTNYADSVKGRFTISRDNAKNTVYLQMNSLKPEDTAVYYCAAKYHYFGFRYDYWGQGTQVTVSS
polyreactivity (PSR sort gate): high polyreactivity

QVQLVESGGGLVQAGGSLRVSCAASGRIIPSYAMGWYRQAPGKERELVAVIRSSVDGTYYADSVKGRFTISRDNAKNTVYLQMNSLKPEDTAVYYCAADSYPFFNLNQYPVREGEYGHWGQGTQVTVSS
polyreactivity (PSR sort gate): low polyreactivity

QVQLVESGGGLVQAGGSLRVSCAASGRILSRNAMGWYRQAPGKERELVAAISISGGSTYYADSVKGRFTISRDNAKNTVYLQMNSLKPEDTAVYYCNTAYYGSRKYDYWGQGTQVTVSS
polyreactivity (PSR sort gate): high polyreactivity

QVQLVESGGGLVQAGGSLRVSCAASGRTFGPYAMGWYRQAPGKERELVAAINSGDRTYYADSVKGRFTISRDNAKNTVYLQMNSLKQEDTAVYYCNARSRRPDDYWGQGTQVTVSS
polyreactivity (PSR sort gate): low polyreactivity

QVQLVESGGGLVQAGGSLRVSCAASGRTFRYYDMGWYRQAPGKEREFVAAITWRGGSTYYADSVKGRFTISRDNAKNTVYLQMNSLKPEDTAVYYCAADPFDDQLQYDYWGQGTQVTVSS
polyreactivity (PSR sort gate): low polyreactivity

QVQLVESGGGLVQAGGSLRVSCAASGSFFVPYAMGWYRHAPGKERELVAAISRGGDTNYADSEKGRFTISRDNAKNTVYLQRNSLKPEDTAVYYCNRARHHYSRWHGGYYYWGQGTQETVSS
polyreactivity (PSR sort gate): low polyreactivity

QVQLVESGGGLVQAGGSLRVSCAASGSIFSSYAMGWYRQAPGKDRELVAVINSGGSTNYADSVKGRFTISRDNAKNTVYFQMNTLKPEDTAVYYCNAYGGTFHNSAAEFDYWGQGTQVSVSS
polyreactivity (PSR sort gate): low polyreactivity

QVQLVESGGGLVQAGGSLRVSCAASGSIFYSYGMGWYRQAPVKERELVAAITSSGGGTYYADSVKGRFTISRDNAKNSVYLQMNSLKPEDTAVYYCAAHDRNYNYYPTFYYWGQGTQVSVSS
polyreactivity (PSR sort gate): low polyreactivity

QVQLVESGGGLVQAGGSLRVSCAASGSTFFRYVMGWYRQAPGNERELVARITSSGSTYYADSVKGRFTISRDNAKNTVYLQMNSLKPEDTAVYYCAAVYASYPYRTKFYYWGQGTQVTVSS
polyreactivity (PSR sort gate): high polyreactivity

QVQLVESGGGLVQAGGSLRVSCAASGSTFGGNAMGWYRQAPGKERELSTYYADSVKGRFTISRDNAKNTVYLQMNSLKPEDTAVYYCNTENFYGSDIFDSWGQGTQVTVSS
polyreactivity (PSR sort gate): low polyreactivity
